In the nanobody polyreactivity screen of Harvey et al. (2022):

Assay: yeast display, Sf9 membrane polyspecificity reagent, FACS + sequencing; frameworks hold sequencing errors
Method in brief: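 Sorting gates, low and high (top ~1%), were placed on anti-HA fluorescence to track expression and on streptavidin fluorescence to track reagent binding. A clone's polyreactivity label is taken from the gate it came out of. The reagent was 10% biotinylated, detergent-solubilized Sf9 membrane, applied for 1 hour at 4 °C to galactose-induced yeast display cells.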

Row | Sequence | polyreactivity (PSR sort gate)
1 | QVQLVESGGGLVQAGGSLRLSCAASGRTFPLNAMGWYRQAPGKERELVAAITWSGGRTYYADSVKGRFTISRDNAKNTVYLQMNSLKPEDTAVYYCATDRYAYKLYDYWGQGTQVTVSS | low polyreactivity
2 | QVQLVESGGGLVQAGGSLRLSCAASGRTFPLYGMGWYRQAPGKERELVATISRSGGSTYYADSVKGRFTISRDNAKNTVYLQMNSLKPEDTAVYYCIADRHYVPYYSRPRYIPYDYWGQGTQVTVSS | high polyreactivity
3 | QVQLVESGGGLVQAGGSLRLSCAASGRTFPNYAMGWYRQAPGKERELVAAISYSGGTTYYADSVKGRFTISRDNAKNTVYLQMNSLKPEDTAVYDCNALRLGYGLFHYDYWGQGTQVTVSS | low polyreactivity
4 | QVQLVESGGGLVQAGGSLRLSCAASGRTFPPTAMGGYRLAPGKEWELVAAISPSGASTYYADSVKGRFTISRDNAKNTVYLQMNSLKPEDTAVYYCAARRFIASPRYKYDYWGQGTQVTVSS | high polyreactivity
5 | QVQLVESGGGLVQAGGSLRLSCAASGRTFPPYAMGWYRQAPGKERELVAAISGSGASTYYADSVKGRFTISRDNAKNTVYLQMNSLKPEDTAVYYCARYRGYWGRYYGVDYGYWGQGTQVTVSS | high polyreactivity
6 | QVQLVESGGGLVQAGGSLRLSCAASGRTFPRNGMGWYRQAPGKERELGAGISSAGSTNYADSVKGRFTISRDNAKNTFYLHMNSLKPEDTAVYYCNAVLRRRWVTFYYWGQGTQVTVSS | high polyreactivity
7 | QVQLVESGGGLVQAGGSLRLSCAASGRTFPRYAMGWYRQATGKERELVAAISVRAGITYYADSVKGRFTISRDNAKNTVYLQMNSLKPEDTAVYYCAKDHWTTSYDEGDYWGQGTQVTVSS | low polyreactivity
8 | QVQLVESGGGLVQAGGSLRLSCAASGRTFPRYTMGWYRQAPGKERELVAASATGGSTYYADSVKGRFTISRDNAKNTVYLQMNSLKPEDTAVYYCAARPYSNRYVLGVYYWGQGTQVTVSS | high polyreactivity
9 | QVQLVESGGGLVQAGGSLRLSCAASGRTFPSNAMGWYRQAPGKEREFVASITYSGGRTYYADSVKGRFTISRDNAKNTVYLQMNSLKPEDTAVYYCATARYRYHYYSWGQGTQVTVSS | high polyreactivity
10 | QVQLVESGGGLVQAGGSLRLSCAASGRTFPVYAMGWYRQAPGKERELVASITGRGGSTYYADSVKGRFTISRDNAKNTVYLQMNSLKPEDTAVYYCARDWYKTYTGYYWGQGTQVTVSS | high polyreactivity
11 | QVQLVESGGGLVQAGGSLRLSCAASGRTFPWYAMGWYRQAPGKERELVAAITYSVGSTYYADSVKGRFTISRDNAKNTVYLQMNSLKPEDTAVYYCAADSYPYRYRGKYSRLDYWGQGTQVTVSS | low polyreactivity
12 | QVQLVESGGGLVQAGGSLRLSCAASGRTFPYNAMGWYRQAPGKERELVAAISSGGTTNYADSVKGRFTISRDNAKNTVYLQMNSLKPEDTAVYYCAADSVDSSQFRRDYWGQGTQVTVSS | low polyreactivity
13 | QVQLVESGGGLVQAGGSLRLSCAASGRTFPYNAMGWYRQAPGKERELVAAITQSAGRTYYADSVKGRFTISRDTAKYTVYFQMNSLKPEDTAVYYCNTVTVAYGYTRLYAQYYYWGQGTQVTVSS | high polyreactivity
14 | QVQLVESGGGLVQAGGSLRLSCAASGRTFPYNAMGWYRQAPGKERELVAAITWRGGRTYYADSVKGRFTISRDYAKNTVYLQMNSLKPEDSAVYYCATVRVSRVRPFWNVWRSNYWGQGTQVTVSS | high polyreactivity
15 | QVQLVESGGGLVQAGGSLRLSCAASGRTFPYYAMGWYRQAPGKERELVAAIRGTAGNTYYADSVKGRFTISRDNAKNTVYLQMNSLKPEDTAVYYCAKGRPYWSPLTGYNYWGQGTQVTVSS | low polyreactivity
16 | QVQLVESGGGLVQAGGSLRLSCAASGRTFPYYAMGWYRQAPGKERELVAAISSSGGRTYYADSVKGRFTISRDNAKNTVYLQMNSLKPEDTAVYYRNVDAWYPYQGFLVGYYYWGQGTQVTVSS | low polyreactivity
17 | QVQLVESGGGLVQAGGSLRLSCAASGRTFPYYAMGWYRQAPGKERELVAAITTNDGDTYYADSVKGRFTISRDNAKNTVYLQMNSLKPEDTAVYYCAADSGSTSEYEYWGQGTQVTVSS | low polyreactivity
18 | QVQLVESGGGLVQAGGSLRLSCAASGRTFPYYVMGWYRQAPGKERELVAAIRRTGGSTYYADSLKGRFTISRDNAKNTVYLQMNSLKPEDTAVYYCTKRHSILYEGGYDYWGQGTQVTVSS | low polyreactivity
19 | QVQLVESGGGLVQAGGSLRLSCAASGRTFQFYAMGWYRKAPGKEREFVAAIDLRGGSTYYADSVKGRFTISRDNAKNRVYLQMNSLKPEDTAVYYCNATRSKFGYFYRYDYWGQGTQVTVSS | low polyreactivity
20 | QVQLVESGGGLVQAGGSLRLSCAASGRTFQFYPMGWYRQAPGKERELVAAIDLRGGSTYYADSVKGRFTISRDNAKNTVYLQMNSLKPEDTAVYYCNADRYTGRDGEQSLDYWGQGTQVTVSS | low polyreactivity
21 | QVQLVESGGGLVQAGGSLRLSCAASGRTFQFYVMGWYRQAPGKERELVASIRSGGSTNYADSVKGRFTISRDNAKNTVYLQMNSLKPEDTAVYYCAARVASPYYRYDYWGQGTQVTVSS | low polyreactivity
22 | QVQLVESGGGLVQAGGSLRLSCAASGRTFQINGMGWYRQAPGKERELVAAITRSGGITYYADSVKGRFTISRDNAKNTVYLQMNSLKPEDTAVYYCNADSYAYYSWYDYWGQGTQVTVSS | low polyreactivity

Row | Sequence | polyreactivity (PSR sort gate)
23 | QVQLVESGGGLVQAGGSLRLSCAASGRTFQLYAMGWYRQAPGKERELVAAITTRADRTYYADSVKGRFTISRDNAKNTVYLQLNSVKPEDTAVYYCAASYSRTYFREDYCGQGTQVTVSS | low polyreactivity
24 | QVQLVESGGGLVQAGGSLRLSCAASGRTFQRNAMGWYRQAPGKERELVAAISGGGSTYYADSVKGRFTISRDNAKNTVYLQMNSLKPEDTAVYYCAARSATRLYYFSRGYDYWGQGTQVTVSS | low polyreactivity
25 | QVQLVESGGGLVQAGGSLRLSCAASGRTFQSNARGRARQAPGKETELVATISSDGSTYYADSVKGRFTISRDNAKNTVYLQMNSLKPEDTAVYYCAADSHPASTIGVRLDSWGQGTQVTVSS | low polyreactivity
26 | QVQLVESGGGLVQAGGSLRLSCAASGRTFQTNVMGWYRQAPGEERELVAAITLSGGSTNYADSVKGRFSISRDNAMYTVYLQMNSLKPEDTAVYYCNAERRYRHQWTPHYEYDYWGQGTQVTVSS | low polyreactivity
27 | QVQLVESGGGLVQAGGSLRLSCAASGRTFQVYAMGWYRQAPGKERELVAAISLTGGGTYYADSVKGRFTISRDNAKNTVYLQMNSLKPEDTEVYYCAVRRRTHLGFLYEYWGQGTQVTVSS | high polyreactivity
28 | QVQLVESGGGLVQAGGSLRLSCAASGRTFRANAMGWSRQAAGKERELVAAITWDGGSTYYADSVKGRFTISRDNAKNTVYLQMNSLKPEDTAVYYCAAESWFLRWYRYDYWGQGTQVTVSS | low polyreactivity
29 | QVQLVESGGGLVQAGGSLRLSCAASGRTFRANAMGWYRQAPGKERELFAAISYSGGRTRYADSVKGRFTISRDNAKNTVYLQMNSLKPEDTAVYYCNRVIPTQSLRDAPGLHQVGYWGQGTQVTVSS | high polyreactivity
30 | QVQLVESGGGLVQAGGSLRLSCAASGRTFRANTMGWYRQAPGKERELVAAISDRGGSTYYADSVKGRFTISRDNAKNTVYLQMNSLKPEDTAVYYCAARNTPAQLDYWGQGTQVTVSS | low polyreactivity
31 | QVQLVESGGGLVQAGGSLRLSCAASGRTFRAYAMGWYRQAPGKERELVAAISGTGDRTYYADSVKGRFTISRDYAKNTVYLQMNSLKPEDTAVYYCAVSYSYRYYYWGQGTQVTVSS | high polyreactivity
32 | QVQLVESGGGLVQAGGSLRLSCAASGRTFRAYAMGWYRQAPGKERELVAAITSGGSTKYADSVKGRFTITRDNAKNTVYLLMNSLKPEDTAVYYCAAVWYGYYSFDTYGYWGQGTQVTVSS | high polyreactivity
33 | QVQLVESGGGLVQAGGSLRLSCAASGRTFRAYAMGWYRQAPGKERELVARISWSGGNTYYADSVKGRFTISRDNAKNTVYLQMNSLKPEDTAVYYCAKTYYPYPAQIYTGYSWGQGTQVTVSS | low polyreactivity
34 | QVQLVESGGGLVQAGGSLRLSCAASGRTFRAYTMGWYRQAPGKERELVAAISTPGGSTYYADSVKGRFTISRDNAKNTVYLQMNSLKPEDTAVYYCAAGTFYYWLSYDYWGQGTQVTVSS | low polyreactivity
35 | QVQLVESGGGLVQAGGSLRLSCAASGRTFRDNVMGWYRQAPGKERELVAAITWSSGSTHYADSVKGRFTISRDNAKNTVYLQMNSLKPEDTAVYYCAQKYGARTKYWEGWNVRYDYWGQGTQVTVSS | low polyreactivity
36 | QVQLVESGGGLVQAGGSLRLSCAASGRTFRDYVMGWYRQAPGKERELVAVISYRGSTYYADSVKGRFTISRDNAKNTVYLQMNSVKPEDTAVYYCAGRFSLEGGYYWGQGTQVTVSS | low polyreactivity
37 | QVQLVESGGGLVQAGGSLRLSCAASGRTFRENAMGWYRQAPGKERELVAAAISSGDGTNYADSVKGRFTISRDNAKNTVYLQMNSLKPEDTAVYYCAADGPRDSYDYWGQGTQVTVSS | low polyreactivity
38 | QVQLVESGGGLVQAGGSLRLSCAASGRTFRENAMGWYRQAPGKERELVAAIRRSGGRTYYADSVKGRFTISRDNAKNTVYLQMNSLKPEDTAVYYCNAVADGYAFRRPYVTYYYWGQGTQVTVSS | low polyreactivity
39 | QVQLVESGGGLVQAGGSLRLSCAASGRTFRFNAMGWYRPAPGKEREFVAAITSGGGTYYADSVKGRFTISRDNAKNTVYLQMNSLKPEDTAVYYCATVGIVHHRLVAMDYWGQGTQVTVSS | low polyreactivity
40 | QVQLVESGGGLVQAGGSLRLSCAASGRTFRFNAMGWYRQAPGKEMELVAAISSGGRTYYADSVKGRFTISRDNAKNTVYLQMNSLKPEDTAVYYCAARVFVRHPHQVAYDYWGQGTQVTVSS | high polyreactivity
41 | QVQLVESGGGLVQAGGSLRLSCAASGRTFRFYAMGWYRQAPGKEREFVAAISRSVGSTYYADSVKGRFTISRDNAKNTVDLQMNSLKPEDTAVYYCNADYRSRYVEYDYWGQGTQVTVSS | high polyreactivity
42 | QVQLVESGGGLVQAGGSLRLSCAASGRTFRFYTMGWYRQAPGKERELVAAIYWRGSSTYYADSVKGRFTISRDNAKNTVYLQMNSLKPEDTAVYYFAKKSYANEYDYWGQGTQVTVSS | high polyreactivity
43 | QVQLVESGGGLVQAGGSLRLSCAASGRTFRGNDMGWYRQAPGKERELVATITRNGGSTRYADSVKGRFTISRDNAKNTVYLQMNSLKPEDTAVYYCNARSRYFGYDYWGQGTQVTVSS | high polyreactivity
